Test results taken from US20020156112A1, “Endostatin-like angiogenesis inhibition” (priority 2000, published 2002).

T1: irrelevant FLR-peptide (Homo sapiens, UniProt P15941, R1131P)
T1 construct: ID No. 2: FLR peptide
T1 sequence (P15941 with tags, fused parts or gaps R1131P): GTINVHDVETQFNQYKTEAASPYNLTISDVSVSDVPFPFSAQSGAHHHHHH

B1: angiostatin: human angiostatin, Calbiochem 176700, angiogenesis inhibitor protein (protein)
chain: YLSECKTGNGKNYRGTMSKTKNGITCQKWSSTSPHRPRFSPATHPSEGLEENYCRNPDNDPQGPWCYTTDPEKRYDYCDILECEEECMHCSGENYDGKISKTMSGLECQAWDSQSPHAHGYIPSKFPNKNLKKNYCRNPDRELRPWCFTTDPNKRWELCDIPRCTTPPPSSGPTYQCLKGTGENYRGNVAVTVSGHTCQHWSAQTPHTHNRTPENFPCKNLDENYCRNPDGKRAPWCHTTNSQVRWEYCKIPSCDSSPVSTEQLAPTAPPELTPVVQDCYHGDGQSYRGTSSTTTTGKKCQSWSSMTPHRHQKTPENYPNAGLTMNYCRNPDADKGPWCFTTDPSVRWEYCNLKKCSGTEA
B2: endostatin: human recombinant endostatin (Calbiochem 324746), known angiogenesis inhibitor protein, a dimer in its functional form (protein, UniProt P39060 1572-1754, looked up)
Endostatin: HSHRDFQPVLHLVALNSPLSGGMRGIRGADFQCFQQARAVGLAGTFRAFLSSRLQDLYSIVRRADRAAVPIVNLKDELLFPSWEALFSGSEGPLKPGARIFSFDGKDVLRHPTWPQKSVWHGSDPNGRRLTESYCETWRTEAPSATGQASSLLGGRLLGQSAASCHHAYIVLCIENSFMTASK
modifications: Endostatin

Legend:
[1] = tested on: His-tagged GRGDS motif peptide; test: NTA-Ni agarose pull-down with SDS PAGE of eluate and flow through (Example 2); type: binding; settings: 0.1 mg/mL protein; imidazole (250 mM) elution
Method: 200 μL NTA-Ni agarose (Qiagen) were washed 2× with 100 μL ddH20, then with wash buffer A, containing 50 mM NaH2PO4, 300 mM NaCl, and 10 mM imidazole at pH 8.0.
A synthetic peptide, was dissolved in DMSO then diluted in phosphate buffer to a final concentration of 1 mM. 100 μL of this peptide solution was incubated with the NTA-Ni resin for 20 minutes at room temperature to allow binding of the histidine-tagged peptide to the NTA-Ni resin. The resin was then pelleted and the supernatant was removed. The resin was washed in buffer A. The peptide bound resin was then divided into two aliquots. A first aliquot was mixed with 100 μL human recombinant endostatin (0.1 mg/mL in 10 mM sodium phosphate buffer, 100 mM sodium chloride, pH 7.4, diluted from stock endostatin, Calbiochem 324746). A second aliquot was mixed with 100 μL human angiostatin, Calbiochem 176700(0.1 mg/mL in 10 mM sodium phosphate buffer, 100 mM sodium chloride, pH 7.4. The beads and angiogenesis inhibitors were incubated on ice 15-20 minutes to allow binding to the bead-immobilized peptide. The resin was then pelleted. The supernatants were removed and reserved for analysis by SDS PAGE (flow through). The beads were then washed 2× with 10 mM sodium phosphate buffer. The histidine-tagged peptides and any immobilized drug were eluted by the addition of 4 aliquots of an imidazole (250 mM) wash.

[2] = tested on: RGD-peptide-bound colloids; test: Colloid/colloid linkage colour-change assay on NTA colloids (Example 7); type: binding; settings: 100 ul or 50 ul protein; room temperature, after approximately 15 minutes
Method: (§1) 600 microliters colloids, derivatized with a self-assembled monolayer that presents nitrilo tri-acetic acid, NTA (for the capture of histidine-tagged proteins), was mixed with 60 microliters of 500 micromolar histidine-tagged RGD-motif-containing peptide. 600 microliters of a second set of NTA-Ni presenting colloids was mixed with 60 ul of a 500 uM solution of histidine-tagged GST, an irrelevant protein, as a negative control. Colloids were spun down and resuspended in phosphate buffer to remove residual unbound protein or peptide. Endostatin and Angiostatin, two proteins implicated in angiogenesis and suspected of binding to regions of vitronectin, such as the RGD peptide, were prepared by dialysis into phosphate-buffered saline solution and then 1:10 dilution into PBS from a stock concentration of 1 mg/mL.
(§2) 400 ul phosphate buffer (pH 7.4), 200 ul either RGD-bound colloids or GST-bound colloids, and either 100 ul endostatin or angiostatin, 50 ul endostatin or angiostatin/50 ul phosphate buffer, or 100 ul phosphate buffer (as a negative control) were added to each well of a crystallization dish. Color change was monitored over time at room temperature. […] The histidine-tagged proteins were then eluted using imidazole, and the samples were analyzed by SDS-PAGE.

GST-bound colloids = test: Colloid/colloid linkage colour-change assay on NTA colloids, negative control protein (Example 7); type: binding; settings: 100 ul or 50 ul protein; room temperature
Method: as §1, §2

GRGDS peptide = test: Gold colloid colour-change binding assay, RGD peptide colloids (Example 6); settings: endostatin 0.1 mg/mL; wells A1, A2
Method: (§3) 40 μM NTA gold colloids were prepared which presented the His-tagged RGD peptide (Sequence ID No.1, see Table 1). These colloids were mixed with endostatin (0.1 mg /mL) and turned blue, indicating binding of endostatin to the GRGDS peptide (A1, A2, FIG. 6). Control colloids presenting an irrelevant FLR-peptide (Sequence ID #2, see table 1) remained pink (wells A3, A4). At the highest concentration of vitronectin (0.1 mg /ml), the endostatin—GRGDS interaction is disrupted, and the well remains pink (B1). At lower concentrations of vitronectin, the endostatin—GRDS interaction is not affected and the wells turn blue (B2-B5).

irrelevant FLR-peptide = molecular target: T1, irrelevant FLR-peptide; test: Gold colloid colour-change binding assay, control colloids (Example 6); settings: endostatin 0.1 mg/mL; wells A3, A4
Method: as §3

[3] = tested on: resin-immobilized RGD peptide; test: NTA-Ni agarose resin binding verified by SDS-PAGE (Example 7); settings: imidazole elution
Method: as §2, with “The color change was more pronounced in the well that contained 100 ul endostatin than in the well that contained 50 ul endostatin/50 ul phosphate buffer. […] The results were verified by gel electrophoresis. The RGD peptide and histidine-tagged GST were bound to a small amount of NTA-Ni agarose resin at saturating concentration. Endostatin was incubated with the resin and allowed to bind to the protein on the resin. The” for “The”

resin-immobilized GST = test: NTA-Ni agarose resin binding verified by SDS-PAGE, control (Example 7); settings: imidazole elution
Method: as §2, with “The color change was more pronounced in the well that contained 100 ul endostatin than in the well that contained 50 ul endostatin/50 ul phosphate buffer. […] The results were verified by gel electrophoresis. The RGD peptide and histidine-tagged GST were bound to a small amount of NTA-Ni agarose resin at saturating concentration. Endostatin was incubated with the resin and allowed to bind to the protein on the resin. The” for “The”

Sequence of His-tagged GRGDS motif peptide (as listed by the source): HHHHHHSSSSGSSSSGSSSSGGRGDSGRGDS
Sequence of GRGDS peptide (as listed by the source): as above
Sequence of resin-immobilized RGD peptide (as listed by the source): as above

Molecule	co-elution with GRGDS motif peptide (SDS PAGE) [1]	colour change of RGD-peptide-bound colloids [2]	colour change of GST-bound colloids (GST-bound colloids)	colloid colour (binding to GRGDS peptide) (GRGDS peptide)	colloid colour (binding to FLR peptide) (irrelevant FLR-peptide)	binding to resin-immobilized RGD peptide (SDS-PAGE) [3]	binding to resin-immobilized GST (SDS-PAGE) (resin-immobilized GST)
B1	did not	No color change	No color change				
B2	co-eluted	color change from red to blue	No color change	turned blue	remained pink	bound	did not bind
